Key:
human neurons [1] = test: Neuronal cell density (NLS-TdTomato-positive nuclei); format: cell-based
Procedure: The prepared aliquots of Aβ peptides were added directly to the culture media during each routine half-media change. To support optimal neuronal development, maturation, and function, while preserving essential factors released by neurons and glia, fresh media supplemented with Aβ was provided every other day until DIV10, and then once weekly until DIV45. […] During each media change, the Aβ peptides were introduced into the cultures to achieve final concentrations of 0.2 μM, 0.15 μM, 0.1 μM, 0.05 μM, 0.025 μM, and 0.005 μM. For scrambled and inverted sequence peptides, only the 0.2 μM and 0.025 μM concentrations were tested. At DIV6, we initiated a half-media replacement protocol in which 50% of the old culture medium was carefully removed and replaced with fresh medium containing Aβ peptides at twice the intended final concentration. […] For example, to achieve a final concentration of 0.2 μM, the fresh medium added at DIV6 was prepared at 0.4 μM, yielding a uniform 0.2 μM concentration after mixing with the peptide-free half. Starting from DIV8 and onward, subsequent half-media changes replaced half of the existing medium with fresh medium containing Aβ at the same target concentration (e.g., 0.2 μM), since the remaining half already contained approximately that amount. This approach was designed to mimic a chronic treatment regimen, allowing us to investigate the long-term effects of the peptides on synapse formation and neuronal activity under sustained exposure conditions.
To assess neuronal cytotoxicity induced by Aβ peptides, we employed a novel Td-Tomato cytotoxicity assay that we developed. Human neurons were infected at DIV 6 with a lentiviral vector carrying a plasmid encoding nuclear localization signal (NLS)-TdTomato under the control of the human Synapsin-1 promoter. The use of the Synapsin promoter ensured neuron-specific expression of Td-Tomato. […] When the neurons had reached full maturation, cells were examined for Td-Tomato localization. Neurons displaying cytoplasmic Td-Tomato were counted as indicators of cytotoxicity. […] For Aβ experiments, imaging and scoring were performed at DIV45, immediately after the final peptide exposure. Data were quantified by calculating the density of neurons with cytoplasmic Td-Tomato, normalized to control cultures, and presented graphically. To assess cell viability, the number of Td-Tomato–positive nuclei, which represent surviving neurons, was counted, normalized to control values, and reported in graphs.

human neurons [2] = test: NLS-TdTomato cytotoxicity assay (cytoplasmic leakage of NLS-TdTomato)
Procedure: (§1) The MTT assay employs yellow tetrazolium dye that is reduced to a purple formazan crystal by viable cells with active metabolism ([21]). Because it measures metabolic activity in all cells, this assay serves as a broad cytotoxicity read out for the entire glia/neuron coculture system. The amount of formazan produced is then measured because it is directly proportional to the number of viable cells ([21]) (Figure 1B and Supplemental Figure 1A). The nuclear localization TdTomato assay, conversely, enables monitoring of cellular stress by tracking the localization of fluorescent TdTomato fused to a nuclear localization signal. Under healthy conditions, the nuclear localization signal directs the NLS-TdTomato to the nucleus. When toxicity in a cell causes a reduction in ATP levels, NLS-TdTomato leaks out of the nucleus into the cytoplasm, which we scored as an index of toxicity (Figure 1, C and D, and Supplemental Figure 1, B–D). Because the reporter is expressed only in neurons, this assay specifically assesses neurotoxicity within the coculture. We developed this assay because it can be performed on live cells and reflects decreases in ATP levels in these cells. […]
To assess neuronal cytotoxicity induced by Aβ peptides, we employed a novel Td-Tomato cytotoxicity assay that we developed. […] Neurons displaying cytoplasmic Td-Tomato were counted as indicators of cytotoxicity. […]

[3] = tested on: human neurons cocultured with mouse glia (entire glia/neuron coculture)
Procedure: as §1, with “cells. The NLS-TdTomato assay was validated by treating cultures with 5% DMSO and 200 μM hydrogen peroxide, 2 well-established neurotoxins.” for “cells.”

## -.DAEFRHDSGYEVHHQKLVFFAGDVGSNKGAIIGLMVGGVVI.A [Aβ42^arctic]
Human neurons [1]; 0.005 uM chronic DIV6-DIV45, DIV45, biological replicate 1
  Neuronal cell density, values normalized to Ctrl (Figure 1E): 0.9504
Human neurons [1]; 0.005 uM chronic DIV6-DIV45, DIV45, biological replicate 2
  Neuronal cell density, values normalized to Ctrl (Figure 1E): 0.943
Human neurons [1]; 0.005 uM chronic DIV6-DIV45, DIV45, biological replicate 3
  Neuronal cell density, values normalized to Ctrl (Figure 1E): 0.9651
Human neurons [1]; 0.05 uM chronic DIV6-DIV45, DIV45, biological replicate 1
  Neuronal cell density, values normalized to Ctrl (Figure 1E): 0.9651
Human neurons [1]; 0.05 uM chronic DIV6-DIV45, DIV45, biological replicate 2
  Neuronal cell density, values normalized to Ctrl (Figure 1E): 0.9896
Human neurons [1]; 0.05 uM chronic DIV6-DIV45, DIV45, biological replicate 3
  Neuronal cell density, values normalized to Ctrl (Figure 1E): 1.07
Human neurons [1]; 0.1 uM chronic DIV6-DIV45, DIV45, biological replicate 1
  Neuronal cell density, values normalized to Ctrl (Figure 1E): 0.9054
Human neurons [1]; 0.1 uM chronic DIV6-DIV45, DIV45, biological replicate 2
  Neuronal cell density, values normalized to Ctrl (Figure 1E): 0.8702
Human neurons [1]; 0.1 uM chronic DIV6-DIV45, DIV45, biological replicate 3
  Neuronal cell density, values normalized to Ctrl (Figure 1E): 1.014
Human neurons [1]; 0.2 uM chronic DIV6-DIV45, DIV45, biological replicate 1
  Neuronal cell density, values normalized to Ctrl (Figure 1E): 0.8081
Human neurons [1]; 0.2 uM chronic DIV6-DIV45, DIV45, biological replicate 2
  Neuronal cell density, values normalized to Ctrl (Figure 1E): 0.8351
Human neurons [1]; 0.2 uM chronic DIV6-DIV45, DIV45, biological replicate 3
  Neuronal cell density, values normalized to Ctrl (Figure 1E): 0.7942
Human neurons [1]; higher concentrations, chronic exposure, DIV45
  Decrease of neuronal cell numbers: approximately 15%
Human neurons [2]
  Concentration at which neurotoxicity became apparent, NLS-TdTomato assay: greater than or equal to 0.1 μM
[3]
  Concentration at which neurotoxic, MTT assay: greater than or equal to 0.025 μM
